This is an account of results in patent US8557771B2, “Homodimer of insulinotropic peptide analogues and method for preparation thereof and use thereof” (Chongqing Fagen Biomedical Inc., priority 2009, dated 2013).

The test system of the experiment is Balb/c mice. Briefly: Blood sugar regulation in mice in vivo after intraperitoneal drug and glucose injection. Particulars: 3 hours after administration; 100 μl of 10 nmol/L drug i.p. with 200 μl of 40% glucose; FIG. 5. As to the method: After fasting overnight, mice were intraperitoneally injected respectively with 100 μl of different drugs that were dissolved to 10 nmol/L in a 10 mmol/L sodium phosphate buffer (pH6.5), and meanwhile injected with 200 μl of glucose solution (40%). Blood was sampled at 30, 60, 120, and 180 min after drug administration and blood sugar was assayed (Blood sugar meter, LifeScan, Inc.). Then, 200 μl of glucose solution (40%) was intraperitoneally injected again at 24 hours, 48 hours, 72 hours and 96 hours after drug administration, respectively. Blood was sampled at 30 and 60 min after glucose administration and blood sugar was assayed (Blood sugar meter, LifeScan, Inc.).

Bridge positions count the residues as written; N and C are the ends. Ends that are not written are not given here. I, II: the chains in the order shown.

B1: Ex4C-Ex4C: Homodimer of Ex4C(NH2) (SEQ ID NO: 3), joined by a disulfide bond between the C-terminal Cys residues (peptide)
chain 1: HGEGTFTSDLSKQMEEEAVRLFIEWLKNGGSGGSC
chain 2: B1 chain 1
modifications: disulfide homodimer, C-terminal amide; Ex4C peptide sequence
Regarding B1, the blood sugar level entry was “well-regulated”.

B2: Di-GLP-G8C: Homodimer of GLP-G8C (SEQ ID NO: 4), formed by oxidation at the C-terminal Cys (peptide)
chain 1: HGEGTFTSDVSSYLEGQAAKEFIAWLVKGGGGGSC
chain 2: B2 chain 1
modifications: disulfide I:35-II:35
As for B2, the blood sugar level result is reported as “well-regulated”.
